B1: human FGFR3b expressed with a C-terminal murine Fc tag (hFGFR3b.mFc) (Fc fusion)
chain: ESLGTEQRVVGRAAEVPGPEPGQQEQLVFGSGDAVELSCPPPGGGPMGPTVWVKDGTGLVPSERVLVGPQRLQVLNASHEDSGAYSCRQRLTQRVLCHFSVRVTDAPSSGDDEDGEDEAEDTGVDTGAPYWTRPERMDKKLLAVPAANTVRFRCPAAGNPTPSISWLKNGREFRGEHRIGGIKLRHQQWSLVMESVVPSDRGNYTCVVENKFGSIRQTYTLDVLERSPHRPILQAGLPANQTAVLGSDVEFHCKVYSDAQPHIQWLKHVEVNGSKVGPDGTPYVTVLKSWISESVEADVRLRLANVSERDGGEYLCRATNFIGVAEKAFWLSVHGPRAAEEELVEADEAGSVYAGEPRGPTIKPCPPCKCPAPNLLGGPSVFIFPPKIKDVLMISLSPIVTCVVVDVSEDDPDVQISWFVNNVEVHTAQTQTHREDYNSTLRVVSALPIQHQDWMSGKEFKCKVNNKDLPAPIERTISKPKGSVRAPQVYVLPPPEEEMTKKQVTLTCMVTDFMPEDIYVEWTNNGKTELNYKNTEPVLDSDGSYFMYSKLRVEKKNWVERNSYSCSVVHEGLHNHHTTKSFSRTPGK
notes: called dimeric; also called REGN3153; dimeric human FGFR3b

Legend:
[1] = molecular target: T1, human FGFR3b expressed with a C-terminal myc-myc-hexahistidine tag (hFGFR3b.mmH) (human); test: SPR (Biacore), recombinant human FGFR3 protein
T1 construct: monomeric; also called REGN3152; monomeric human FGFR3b
T1 chain: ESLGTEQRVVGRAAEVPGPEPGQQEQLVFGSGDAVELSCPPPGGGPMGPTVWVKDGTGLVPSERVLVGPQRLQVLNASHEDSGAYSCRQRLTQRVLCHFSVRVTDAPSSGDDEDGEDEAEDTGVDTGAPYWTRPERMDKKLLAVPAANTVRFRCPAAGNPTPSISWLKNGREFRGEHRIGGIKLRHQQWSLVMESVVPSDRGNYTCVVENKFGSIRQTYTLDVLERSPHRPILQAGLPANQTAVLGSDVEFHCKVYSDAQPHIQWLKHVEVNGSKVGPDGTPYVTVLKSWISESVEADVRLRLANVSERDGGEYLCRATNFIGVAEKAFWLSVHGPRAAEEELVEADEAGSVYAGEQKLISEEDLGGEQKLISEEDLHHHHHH

[2] = molecular target: B1; test: SPR (Biacore), captured mAb, 25 C
Description: (§1) The CM5 Biacore sensor surface was derivatized by amine coupling with a monoclonal mouse anti-human Fc monoclonal antibody (REGN2567). All Biacore binding studies were performed in a buffer composed of 0.01M HEPES pH 7.4, 0.15 M NaCl, 3 mM EDTA, 0.05% v/v Surfactant P20 (HBS-EP running buffer). […] Antibody-reagent association was monitored for 5 minutes while dissociation in HBS-EP running buffer was monitored for 10 minutes. At the end of each cycle, the anti-FGFR3 antibody capture surface was regenerated using a 10 sec injection of 20 mM phosphoric acid. All binding kinetics experiments were performed at 25° C.
(§2) The specific SPR-Biacore sensorgrams were obtained by a double referencing procedure. The double referencing was performed by first subtracting the signal of each injection over a reference surface (anti-hFc) from the signal over the experimental surface (anti-hFc-captured anti-FGFR3 antibodies) thereby removing contributions from refractive index changes. In addition, running buffer injections were performed to allow subtraction of the signal changes resulting from the dissociation of captured antibodies from the coupled anti-hFc surface. Kinetic association (kₐ) and dissociation (kd) rate constants were determined by fitting the real-time sensorgrams to a 1:1 binding model using Scrubber v2.0c curve fitting software.

[3] = molecular target: T1, human FGFR3b expressed with a …; test: SPR (Biacore), captured mAb, 25 C
Description: as §1, §2

[4] = molecular target: T2, murine FGFR3b expressed with a C-terminal myc-myc-hexahistidine tag (mFGFR3b.mmH) (mouse); test: SPR (Biacore), captured mAb, 25 C
T2 construct: monomeric; also called REGN3215; monomeric murine FGFR3b
T2 chain: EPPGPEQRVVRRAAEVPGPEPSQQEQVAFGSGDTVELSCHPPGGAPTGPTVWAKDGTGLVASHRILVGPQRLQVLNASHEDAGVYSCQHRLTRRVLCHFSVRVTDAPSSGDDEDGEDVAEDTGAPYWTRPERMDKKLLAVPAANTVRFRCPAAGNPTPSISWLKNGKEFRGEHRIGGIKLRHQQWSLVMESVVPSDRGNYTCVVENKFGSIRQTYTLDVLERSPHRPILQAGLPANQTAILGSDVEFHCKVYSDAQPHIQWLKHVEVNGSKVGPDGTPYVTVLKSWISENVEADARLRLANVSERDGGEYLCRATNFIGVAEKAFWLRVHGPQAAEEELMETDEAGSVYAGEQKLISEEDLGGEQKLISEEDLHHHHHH
Description: as §1, §2

[5] = molecular target: T3, human FGFR3c expressed with a C-terminal myc-myc-hexahistidine tag (hFGFR3c.mmH) (human, UniProt P22607 23-375); test: SPR (Biacore), captured mAb, 25 C
T3 construct: monomeric; also called REGN3155; monomeric human FGFR3c
Description: as §1, §2

[6] = molecular target: T4, human fibroblast growth factor acidic (hFGF acidic) (human, UniProt P05230 2-155, limits assumed); test: ELISA, receptor-Fc on plate-coated hFGF acidic with heparin; fixed concentration said to be chosen near the EC50 of this binding
T4 construct: Bought; coated on the plate with heparin; also called FGF1 acidic

[7] = molecular target: T5, human fibroblast growth factor basic (hFGF basic) (human, UniProt P09038 144-288); test: ELISA, receptor-Fc on plate-coated hFGF basic with heparin; fixed concentration said to be chosen near the EC50 of this binding
T5 construct: Bought; also called Biolegend 571508
T5 sequence (P09038 144-288, form in doubt): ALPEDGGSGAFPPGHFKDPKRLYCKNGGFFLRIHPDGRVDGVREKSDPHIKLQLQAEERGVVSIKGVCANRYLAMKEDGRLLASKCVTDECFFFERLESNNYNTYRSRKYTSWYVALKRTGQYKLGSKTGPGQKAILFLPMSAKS

T4 sequence (P05230 2-155 limits assumed, form in doubt): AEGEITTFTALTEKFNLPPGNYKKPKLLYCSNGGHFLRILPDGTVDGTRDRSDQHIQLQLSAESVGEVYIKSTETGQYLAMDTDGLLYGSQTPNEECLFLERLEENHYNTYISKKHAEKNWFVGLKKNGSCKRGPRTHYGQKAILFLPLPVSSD

| Binder | Kd [1] | t½ [2] | t½ [3] | t½ [4] | t½ [5] | EC50 [6] | EC50 [7] |
| --- | --- | --- | --- | --- | --- | --- | --- |
| H4H30093P2 (antibody, human IgG4 S228P, kappa, V domains shown) VH: QVQLVESGGGLVKPGGSLRLSCAASGFTFNDYPMSWIRQAPGKGLEWVSYITSSSGSTIYYADSVKGRFTISRDNAKNSLYLQMNSLRAEDTAVYYCAREVVVATIGGYYGMDVWGQGTTVTVSS VL: not shown | 9.06 nM | 745 min | 5.5 min | 1.2 min | 3.5 min | – | – |
| B1 | – | – | – | – | – | ~4 nM | – |
| hFGFR3c-hFc (Fc fusion, human, UniProt P22607 23-375, looked up, range 23-375; Bought (R&D Systems); also called human FGFR3c extracellular domain with human IgG1 Fc; R&D Systems 766-FR-050; not shown: Fc portion of human IgG1 at the C-terminus, amino acids Pro100-Lys330) ESLGTEQRVVGRAAEVPGPEPGQQEQLVFGSGDAVELSCPPPGGGPMGPTVWVKDGTGLVPSERVLVGPQRLQVLNASHEDSGAYSCRQRLTQRVLCHFSVRVTDAPSSGDDEDGEDEAEDTGVDTGAPYWTRPERMDKKLLAVPAANTVRFRCPAAGNPTPSISWLKNGREFRGEHRIGGIKLRHQQWSLVMESVVPSDRGNYTCVVENKFGSIRQTYTLDVLERSPHRPILQAGLPANQTAVLGSDVEFHCKVYSDAQPHIQWLKHVEVNGSKVGPDGTPYVTVLKTAGANTTDKELEVLSLHNVTFEDAGEYTCLAGNSIGFSHHSAWLVVLPAEEELVEADEAGSVYAG | – | – | – | – | – | ~0.4 nM | ~7 nM |
